B1: HA-tagged ASK1-WT (protein)
chain: MSTEADEGITFSVPPFAPSGFCTIPEGGICRRGGAAAVGEGEEHQLPPPPPGSFWNVESAAAPGIGCPAATSSSSATRGRGSSVGGGSRRTTVAYVINEASQGQLVVAESEALQSLREACETVGATLETLHFGKLDFGETTVLDRFYNADIAVVEMSDAFRQPSLFYHLGVRESFSMANNIILYCDTNSDSLQSLKEIICQKNTMCTGNYTFVPYMITPHNKVYCCDSSFMKGLTELMQPNFELLLGPICLPLVDRFIQLLKVAQASSSQYFRESILNDIRKARNLYTGKELAAELARIRQRVDNIEVLTADIVINLLLSYRDIQDYDSIVKLVETLEKLPTFDLASHHHVKFHYAFALNRRNLPGDRAKALDIMIPMVQSEGQVASDMYCLVGRIYKDMFLDSNFTDTESRDHGASWFKKAFESEPTLQSGINYAVLLLAAGHQFESSFELRKVGVKLSSLLGKKGNLEKLQSYWEVGFFLGASVLANDHMRVIQASEKLFKLKTPAWYLKSIVETILIYKHFVKLTTEQPVAKQELVDFWMDFLVEATKTDVTVVRFPVLILEPTKIYQPSYLSINNEVEEKTISIWHVLPDDKKGIHEWNFSASSVRGVSISKFEERCCFLYVLHNSDDFQIYFCTELHCKKFFEMVNTITEEKGRSTEEGDCESDLLEYDYEYDENGDRVVLGKGTYGIVYAGRDLSNQVRIAIKEIPERDSRYSQPLHEEIALHKHLKHKNIVQYLGSFSENGFIKIFMEQVPGGSLSALLRSKWGPLKDNEQTIGFYTKQILEGLKYLHDNQIVHRDIKGDNVLINTYSGVLKISDFGTSKRLAGINPCTETFTGTLQYMAPEIIDKGPRGYGKAADIWSLGCTIIEMATGKPPFYELGEPQAAMFKVGMFKVHPEIPESMSAEAKAFILKCFEPDPDKRACANDLLVDEFLKVSSKKKKTQPKLSALSAGSNEYLRSISLPVPVLVEDTSSSSEYGSVSPDTELKVDPFSFKTRAKSCGERDVKGIRTLFLGIPDENFEDHSAPPSPEEKDSGFFMLRKDSERRATLHRILTEDQDKIVRNLMESLAQGAEEPKLKWEHITTLIASLREFVRSTDRKIIATTLSKLKLELDFDSHGISQVQVVLFGFQDAVNKVLRNHNIKPHWMFALDSIIRKAVQTAITILVPELRPHFSLASESDTADQEDLDVEDDHEEQPSNQTVRRPQAVIEDAVATSGVSTLSSTVSHDSQSAHRSLNVQLGRMKIETNRLLEELVRKEKELQALLHRAIEEKDQEIKHLKLKSQPIEIPELPVFHLNSSGTNTEDSELTDWLRVNGADEDTISRFLAEDYTLLDVLYYVTRDDLKCLRLRGGMLCTLWKAIIDFRNKQT
B2: Flag-tagged Trx-WT (protein)
chain: MVKQIESKTAFQEALDAAGDKLVVVDFSATWCGPCKMIKPFFHSLSEKYSNVIFLEVDVDDCQDVASECEVKCMPTFQFFKKGQKVGEFSGANKEKLEATINELV

Experiments:
[1] = molecular target: GST-SOCS3 (full-length) [GST: P08515]
[2] = molecular target: GST-SOCS3-DC (1-138aa, deletion of the C-terminal SOCS box) [GST: P08515]
[3] = molecular target: GST-SOCS3-N (1-45aa) [GST: P08515]
[4] = molecular target: endogenous ASK1 of bovine aorta endothelial cells (BAEC), A0AAA9

Protein	phosphorylation in an in vitro kinase assay [1]	phosphorylation in an in vitro kinase assay [2]	phosphorylation in an in vitro kinase assay [3]	ASK1 ubiquitination and degradation (Western blot with anti-Flag) (Flag-ASK1-ΔN, Q99683)	ASK1 ubiquitination and degradation (Western blot; IP anti-ASK1, blot anti-Ub) [4]
B1	only the full-length GST-SOCS3 was phosphorylated by ASK1	only the full-length GST-SOCS3 was phosphorylated by ASK1	only the full-length GST-SOCS3 was phosphorylated by ASK1		
B2				expression of Trx did not induce ubiquitination and degradation of ASK1 -ΔN, a mutant ASK1 lacking the N-terminal Trx-binding domain	Trx expression significantly increased ASK1 ubiquitination
